The conditions of series [1]: cited from earlier work; for Isoelectric point pI: Table 1; for Isoelectric point: Table 5.
Series [2] concerns the target human serum albumin (HSA) (Homo sapiens, UniProt P02768). The settings on record: for b value of Equation (I) (dissociation mode: b<0.241 single, b≥0.241 multiple) / Δλ (maximum layer thickness change amount, second information): peptide concentration per Table 5.

Like-named read-outs stand apart in the source and are kept apart here. Peptide text beside a SMILES is read from it.

Consider “ACTH partial peptide at the 1-41 positions (GPSYSMEHFRWGKPVGKKRRPVKVYPNGAEDESAEAFPLEF; listed as Homo sapiens) [ACTH41]”, for which the “Isoelectric point pI” value in series [1] is on record as 8.3.

For “ACTH partial peptide at the 1-24 positions [ACTH24]”, in series [1], the “Isoelectric point pI” value is recorded as 10.6.

As for amyloid β42 peptide [AB42], in series [1], the “Isoelectric point pI” value was 5.3 and the Isoelectric point is on record as 5.3.

As for glucagon, in series [1], the “Isoelectric point pI” value is 6.8.

Consider “histidine eicosa peptide (HHHHHHHHHHHHHHHHHHHH; Synthetic His eicosapeptide) [(His) 20]”, for which, in series [1], the “Isoelectric point pI” value is listed as 7.6.

As to “fibrinogen α (DEAGSEADHEGTHSTKRGHAKSRPV; listed as Homo sapiens)”, the “Isoelectric point pI” value in series [1] is 6.3.

For the molecule “ACTH partial peptide at the 1-39 positions (SYSMEHFRWGKPVGKKRRPVKVYPNAGENESAEAFPLEF; listed as Homo sapiens) [ACTH39]”, the “dissociation mode (third information)” value in series [2] (HSA sensor chip, peptide map FIG. 6, peptide 2 μM) is listed as “multiple dissociation mode”. The “Isoelectric point pI” value in series [1] was 9.3.

Regarding “ACTH15: SEQ ID NO: 11, YSMEHFRWGKPVGKK (listed as Homo sapiens)”, in series [2] (pH 6.9), the “Koff (dissociation rate constant, first information)” value (shortened to “Koff”) is 0.01147 s⁻¹. Also, in series [1], the “Isoelectric point pI” value was 10 and the Isoelectric point is reported as 10.

Take (His) 3: HHH: in series [2] (HSA sensor chip), the “b value of Equation (I) (dissociation mode: b<0.241 single, b≥0.241 multiple)” value (shortened to “b value of Equation (I)”) stood at 0.344 and the “Δλ (maximum layer thickness change amount, second information)” value came out at 0.027 nm. The “Koff” value in series [2] (pH 6.9) came to 0.00257 s⁻¹. The Isoelectric point in series [1] is 7.

Regarding “Lys-decapeptide (KKKKKKKKKK; Synthetic Lys decapeptide) [(Lys) 10]”, in series [2] (HSA sensor chip), the “b value of Equation (I)” value amounted to 0.669 and the “Δλ (maximum layer thickness change amount, second information)” value is 0.045 nm. The “Koff” value in series [2] (pH 6.9) was found to be 0.0002 s⁻¹. In series [1], the Isoelectric point is 11.

As to “IS 13mer: the 237 to 249th fragments of the amino acid sequence of HSA; SEQ ID NO: 21, AWAVARLSQRFPK (listed as Homo sapiens)”, in series [2] (HSA sensor chip), the “b value of Equation (I)” value is 0.756 and the “Δλ (maximum layer thickness change amount, second information)” value was 0.061 nm. For the same molecule, the “Koff” value in series [2] (pH 6.9) was 0.01708 s⁻¹. Besides, the Isoelectric point in series [1] is given as 12.

As for brain natriuretic peptide [BNP], the “Isoelectric point pI” value in series [1] was 11.

Regarding Amyloid β40 peptide [AB40], in series [1], the “Isoelectric point pI” value was 5.3 and the Isoelectric point is 5.3.

Turning to “kininogen (HNLGHGHKHERDQGHGHQR; listed as Homo sapiens)”, in series [2] (HSA sensor chip), the “b value of Equation (I)” value was determined as 1.093 and the “Δλ (maximum layer thickness change amount, second information)” value is given as 0.082 nm. Further, the “Koff” value in series [2] (pH 6.9) was determined as 0.00493 s⁻¹. Moreover, in series [1], the “Isoelectric point pI” value is 8.8 and the Isoelectric point is listed as 8.8.

On to “dynorphin A (YGGFLRRIRPKLK; listed as Homo sapiens)”, for which, in series [2] (HSA sensor chip, peptide concentration during measurement per Table 5 (1-1000 μM), 0.1 M sodium phosphate buffer pH 6.9), the “Koff” value stood at 0.00617 s⁻¹. Moreover, in series [1], the “Isoelectric point pI” value is on record as 11.7 and the Isoelectric point is 11.7.

Consider “His-decapeptide (HHHHHHHHHH; Synthetic His decapeptide) [(His) 10]”, for which the “Koff” value in series [2] (pH 6.9) came to 0.00073 s⁻¹. The Isoelectric point in series [1] is given as 7.4.

Consider “ELN 11mer: the 548 to 558th fragments of the amino acid sequence of elastin; SEQ ID NO: 20, GVPGLGVGAGV (listed as Homo sapiens)”, for which, in series [2] (HSA sensor chip), the “b value of Equation (I)” value stood at 0 and the “Δλ (maximum layer thickness change amount, second information)” value came to 0.043 nm. Further, the “Koff” value in series [2] (pH 6.9) worked out at 0.00016 s⁻¹. Moreover, in series [1], the Isoelectric point is 5.5.

Turning to arginine decapeptide [(Arg) 10], the “Isoelectric point pI” value in series [1] was 13.

Turning to `NC(N)=NCCC[C@H](NC(=O)[C@H](Cc1ccccc1)NC(=O)[C@@H]1CCCN1C(=O)[C@H](CO)NC(=O)[C@H](Cc1ccccc1)NC(=O)CNC(=O)[C@@H]1CCCN1C(=O)[C@@H]1CCCN1C(=O)[C@@H](N)CCCN=C(N)N)C(=O)O` [Bradykinin] (H-RPPGFSPFR-OH), the “Koff” value in series [2] (pH 6.9) worked out at 0.01721 s⁻¹.

Regarding “inter-α-trypsin inhibitor heavy chain 4 (GESRNRNVHSGSTFFKYYLQGAKIPKPEASFS; listed as Homo sapiens) [ITIH4]”, in series [1], the “Isoelectric point pI” value was 9.8.

B1: Lysozyme (protein, listed as Homo sapiens)
chain: KVYGRCELAAAMKRLGLDNFRGYSLGNWVCAAKFESNFNTHATNRNTDGSTDYGILQINSRWWCNDGRTPGSRNLCNIPCSALLSSDTIASVNCAKKIVSDGNGMNAWVAWRKRCKGTDVNAWTRGCRL
In the case of B1, in series [2] (HSA sensor chip), the “b value of Equation (I)” value was 0.278 and the “Δλ (maximum layer thickness change amount, second information)” value amounted to 0.12 nm. Further, in series [2] (pH 6.9), the “Koff” value stood at 0.0066 s⁻¹. In addition, in series [1], the Isoelectric point was 9.4.

The values above are taken from patent US10976314B2, “Device, non-transitory computer-readable storage medium, and method for determining type of target peptide” (SYSMEX CORPORATION, priority 2014, dated 2021).
